Test results published in FireProtDB (doi:10.1021/bi960855h).

Details: Bos taurus, Thermal, DSC, NaCl 200 mM, reversible: yes, whole UniProt chain shown
[1] = pH 4, Acetic acid-Sodium acetate 10 mM
[2] = pH 5, Acetic acid-Sodium acetate 10 mM

B1: Ribonuclease pancreatic wild type, P61823 (protein)
chain: MALKSLVLLSLLVLVLLLVRVQPSLGKETAAAKFERQHMDSSTSAASSSNYCNQMMKSRNLTKDRCKPVNTFVHESLADVQAVCSQKNVACKNGQTNCYQSYSTMSITDCRETGSSKYPNCAYKTTQANKHIIVACEGNPYVPVHFDASV
With B1 the Tm [1] was 44.6 °C, the “heat capacity change of unfolding” value [1] was 1.24 kcal/mol/K and the “unfolding enthalpy (calorimetric)” value [1] was 94.5 kcal/mol. For the same protein, the “unfolding enthalpy (van 't Hoff)” value [1] was 98.1 kcal/mol, the Tm [2] was 45.5 °C and the “heat capacity change of unfolding” value [2] was 1.2 kcal/mol/K. The “unfolding enthalpy (calorimetric)” value [2] was 95.7 kcal/mol, the “unfolding enthalpy (van 't Hoff)” value [2] was 96.9 kcal/mol and the Tm (pH 6, MES 10 mM) was 46.8 °C. The “heat capacity change of unfolding” value (pH 6, MES 10 mM) was 1.17 kcal/mol/K, the “unfolding enthalpy (calorimetric)” value (pH 6, MES 10 mM) was 98.1 kcal/mol and the “unfolding enthalpy (van 't Hoff)” value (pH 6, MES 10 mM) was 100 kcal/mol. For the same protein, the Tm (pH 6.5, MES 10 mM) was 47.2 °C, the “heat capacity change of unfolding” value (pH 6.5, MES 10 mM) was 1.22 kcal/mol/K and the “unfolding enthalpy (calorimetric)” value (pH 6.5, MES 10 mM) was 99.3 kcal/mol. For the same protein, the “unfolding enthalpy (van 't Hoff)” value (pH 6.5, MES 10 mM) was 100 kcal/mol, the Tm (pH 7, MOPS 10 mM) was 50.1 °C and the “heat capacity change of unfolding” value (pH 7, MOPS 10 mM) was 1.22 kcal/mol/K. The “unfolding enthalpy (calorimetric)” value (pH 7, MOPS 10 mM) was 103 kcal/mol, the “unfolding enthalpy (van 't Hoff)” value (pH 7, MOPS 10 mM) was 102 kcal/mol and the Tm (pH 7.5, MOPS 10 mM) was 50.6 °C. For the same protein, the “heat capacity change of unfolding” value (pH 7.5, MOPS 10 mM) was 1.2 kcal/mol/K, the “unfolding enthalpy (calorimetric)” value (pH 7.5, MOPS 10 mM) was 104 kcal/mol and the “unfolding enthalpy (van 't Hoff)” value (pH 7.5, MOPS 10 mM) was 105 kcal/mol.
